Assay results reported in patent US20110281938A1.

Molecular target: tissue factor:FVIIa complex (TF:FVIIa) (UniProt P13726)
Assay: cell-based or functional assay

Sequence of tissue factor:FVIIa complex (TF:FVIIa) (P13726 33-295 limits assumed, chain 1 of 2): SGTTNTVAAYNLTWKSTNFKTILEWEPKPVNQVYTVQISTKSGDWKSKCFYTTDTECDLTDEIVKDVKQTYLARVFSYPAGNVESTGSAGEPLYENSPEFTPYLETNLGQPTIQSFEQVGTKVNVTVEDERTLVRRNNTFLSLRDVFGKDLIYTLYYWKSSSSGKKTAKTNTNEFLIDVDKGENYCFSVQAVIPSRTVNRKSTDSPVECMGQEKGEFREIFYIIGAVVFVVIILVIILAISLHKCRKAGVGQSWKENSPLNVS
Sequence of tissue factor:FVIIa complex (TF:FVIIa) (P08709 61-466 limits assumed, chain 2 of 2, further chain): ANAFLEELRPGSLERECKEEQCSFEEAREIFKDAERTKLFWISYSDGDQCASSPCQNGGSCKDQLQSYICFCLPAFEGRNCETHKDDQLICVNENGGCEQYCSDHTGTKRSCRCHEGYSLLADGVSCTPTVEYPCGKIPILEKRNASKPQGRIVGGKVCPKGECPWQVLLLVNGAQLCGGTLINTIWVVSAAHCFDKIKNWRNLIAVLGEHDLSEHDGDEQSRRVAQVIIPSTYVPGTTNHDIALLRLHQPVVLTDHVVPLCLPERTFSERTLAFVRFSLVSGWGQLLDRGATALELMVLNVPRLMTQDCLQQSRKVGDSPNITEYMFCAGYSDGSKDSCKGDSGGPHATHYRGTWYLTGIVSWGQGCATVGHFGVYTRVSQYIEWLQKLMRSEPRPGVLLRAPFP

- rate of FXa generation at 4 minutes, extrinsic tenase (Xase) inhibition assay, 1 nM TFPI: 70%
Substance: TFPI (source and species not stated; Examples 8, 12 and 45) (from UniProt P10646 29-304)
